Results from paper PMC6638984, “Increased association between Epstein-Barr virus EBNA2 from type 2 strains and the transcriptional repressor BS69 restricts EBNA2 activity” (PLoS Pathogens, 2019).

Molecular target: T1, BS69CC-MYND (BS69 amino acid 480–602, CC-MYND domain) (Homo sapiens, UniProt Q15326)
T1 construct: The BS69 CC-MYND domain (amino acids 480–602) was amplified from pCI-BS69; GST (N, cleaved yes); 6xHis (N, cleaved yes); made in house; host or cells: E. coli Rosetta 2 (DE3) pLysS
T1 sequence (Q15326 480-602): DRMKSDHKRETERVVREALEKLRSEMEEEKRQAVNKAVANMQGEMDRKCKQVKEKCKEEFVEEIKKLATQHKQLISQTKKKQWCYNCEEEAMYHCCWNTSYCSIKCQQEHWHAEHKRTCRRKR
Experiment: Isothermal titration calorimetry (ITC) of EBNA2 peptides and polypeptides binding to BS69CC-MYND
Settings: 25°C, mean ± SD of 3 independent experiments; for n value (stoichiometry of BS69CC-MYND/EBNA2 binding, monomeric proteins), one-site model: pH 7.5, polypeptides 19 x 2.0 μl injections into 0.1 mM BS69CC-MYND
From the text: We hypothesised that the impaired gene activation and growth maintenance properties of type 2 EBNA2 may be the result of increased binding to BS69 as a result of the aspartate to serine amino acid difference adjacent to BS69 binding motif 2. […] We used isothermal titration calorimetry (ITC) to determine the affinity of peptide binding to the C-terminal region of BS69 (amino acid 480–602) comprising the CC-MYND domain that we expressed and purified from E.coli (Fig 1B and 1C). […] The difference in binding between type 1 and type 2 EBNA2 motif 2 peptides could be influenced by both the aspartate to serine change and differences in two other amino acids present in the sequence (Fig 1B and 1C).
The BS69 CC-MYND domain (amino acids 480–602) was amplified from pCI-BS69 containing the full length human BS69 sequence (gift from Dr Stéphane Ansieau) and cloned using SLIC into the SmaI and HindIII sites of pET49b+ to generate a construct expressing an N-terminal GST-6x Histidine tag BS69CC-MYND fusion protein (S2 Table).
Four commercially synthesized peptides (Peptide Synthetics) were used for ITC. These included BS69 binding motif 2 of type 1 EBNA2 (435–445) or type 2 EBNA2 (402–412) and putative BS69 binding motif 3 of type 1 EBNA2 (445–455) or type 2 EBNA2 (412–422).
Frozen protein was quickly thawed using running water and dialysed overnight at 4°C using Slide-A-Lyzer MINI Dialysis Units (Thermo Scientific) against ITC buffer (20mM Tris-HCl, 100mM NaCl and 1mM TCEP, pH 7.5). The next day, protein samples were centrifuged at 13000 rpm for 10 mins at 4 °C and the concentration was determined by NanoDrop spectroscopy (NanoDrop Technologies) with their respective molecular weights and extinction coefficients. EBNA2 peptides (1mM) and polypeptides (type 1, 0.3 mM and type 2, 0.6 mM) were titrated against BS69CC-MYND (0.1mM) at 25°C using a MicroCalTM iTC200 instrument (Malvern). For peptides, 13 x 3.0 μl injections were used for titration. For EBNA2 polypeptides 19 x 2.0 μl or 29 x 1.3 μl injections were used for titration. ITC data were corrected for non-specific heat and analysed using MicroCal Origin 7.0. The experiments were performed in triplicate alongside a control experiment with no BS69CC-MYND (buffer only in the cell). All polypeptides were used within 24 hrs of dialysis into ITC buffer.

[1] = pH 7.5, peptides 13 injections, polypeptides 19 injections

| Substance | KD (dissociation constant), one-site (one event) binding model (20mM Tris-HCl, 100mM NaCl, 1mM TCEP, pH 7.5, EBNA2 titrated into 0.1 mM BS69CC-MYND, peptides 1 mM, 13 injections, n fixed to 1, polypeptides 19 x 2.0 μl injections) | Kd (20mM Tris-HCl, 100mM NaCl, 1mM TCEP, pH 7.5, EBNA2 titrated into 0.1 mM BS69CC-MYND, peptides 1 mM, 13 injections, n fixed to 1, polypeptides 19 x 2.0 μl injections, read-out: KD (dissociation constant), one-site (one event) binding model) | -TΔS, one-site model [1] | ΔG, one-site model [1] | ΔH, one-site model [1] | n value (stoichiometry of BS69CC-MYND/EBNA2 binding, monomeric proteins), one-site model | n value (stoichiometry of BS69CC-MYND/EBNA2 binding, monomeric proteins), one-site model (listed as type 1 EBNA2_381-445) |
| --- | --- | --- | --- | --- | --- | --- | --- |
| YPPSIDPADLD [T1 EBNA2 motif 3] | not able to detect any binding |  |  |  |  |  |  |
| T1 EBNA2_381-445: type 1 EBNA2 polypeptide, amino acids 381–445, expressed and purified from E.coli |  | 950 nM | 18.4 ± 0.46 kcal/mol | -8.22 ± 0.08 kcal/mol | -26.6 ± 0.53 kcal/mol | 0.42 ± 0.02 | 0.42 |
